From patent US20230312744A1, “Modulatory Substance of Tumor Immune Microenvironment, and Preventive, Diagnostic and/or Therapeutic Utilization of the Same” (The University Of Tokyo, priority 2020, published 2023) come the findings set out here.

The test system of the experiment is PMN-MDSCs in the TIME. Nature of the experiment: Flow cytometry of tumor-infiltrating cells from SL4 tumors (PMN-MDSCs in CD45+ cells). Conditions: 55F3 200 μg/mouse i.p., Day 13 after transplantation, ratio of PMN-MDSCs to CD45+ cells, vs control IgG. The experiment is classed as in vivo. On the procedure:
In FIG. 13(a), SL4 cells (1×10^5 cells) were subcutaneously transplanted into C57BL/6 mice. The monoclonal antibody (55F3) (n=5) reacting against TCTP or control IgG (n=6) was intraperitoneally administered to the mice, every other day from one day after the transplantation (200 μg/mouse). The tumor volume was measured over time. In FIG. 13(b), on Day 13 after the transplantation, single cell suspensions were prepared from tumors, and were then subjected to a flow cytometry analysis (n=5). […] In FIG. 13(c), SL4 cells (1×10^5 cells) were subcutaneously transplanted into C57BL/6 mice (n=6). After the transplantation, DHA (50 mg/kg) was intraperitoneally […] into the mice every day. The tumor volume was measured over time. […] The tumor volume was measured over time. […] In FIG. 13(f), the amount of TCTP in sera derived from healthy subjects (people who are not affected with cancer) (n=5) and colorectal cancer patients (n=14) was quantified by immunoblotting. […] In FIG. 13 (g), (right view) the relative staining intensity by the anti-TCTP antibody was semi-quantified, and the staining intensity of the colorectal cancer tissues was compared with the staining intensity of the normal large intestinal tissues (n=45). […]
Tumor-infiltrating cells were recovered after subcutaneous transplantation of a tumor into mice, and were then analyzed by flow cytometry. […]

B1: 55F3: Mouse monoclonal antibody against human TCTP peptide SEQ ID NO: 25; CDRs SEQ ID NO: 1-6, VH SEQ ID NO: 19, VL SEQ ID NO: 22 (antibody, listed as Mus musculus)
VH: MRVLILLWLFTAFPGILSDVQLQESGPGLVKPSQSLSLTCTATGYSIASDYAWNWIRQFPGNKLEWMGYINYSGSTGYNPSLKSRISITRDTSKNQFFLQLNSVTTEDTATYYCARFEAGYWGQGTTLTVSSAKTTPPSVYPLAPGSAAQTNSMVTLGCLVKGYFPEPVT
VL: MDMRTPAQFLGILLLWFPGIKCDIKMTQSPSSMSASLGERVTITCKASQDINRYLSWFQQKPGKSPKTLIYRANRLVDGVPSRFSGSGSGQDYSLTISSLEYGDMGIYYCLQYNEFPLTFGAGTKLELKRADAAPTVSIFPPSSEQLTSGGASVVCFLN
Take B1: the “amount of PMN-MDSCs in the TIME” value was “decreased”.
